Laboratory results as given in patent US20080207501A1.
Values belong to the substance of their own block, whether it stands above or below them.

Columns and labels:
Amylin RBA (rat) = Amylin RBA (rat) (UniProt P32214); assay: radioligand binding assay (displacement of radiolabeled amylin)
CGRP RBA = CGRP RBA (UniProt Q16602); assay: radioligand binding assay (displacement of radiolabeled CGRP)
[1] = biological target: calcitonin receptor of CHO cells; assay: cell-based or functional assay
[2] = biological target: T1, calcitonin receptor of T47D cells (UniProt P30988); assay: cell-based or functional assay
T1 sequence (looked up): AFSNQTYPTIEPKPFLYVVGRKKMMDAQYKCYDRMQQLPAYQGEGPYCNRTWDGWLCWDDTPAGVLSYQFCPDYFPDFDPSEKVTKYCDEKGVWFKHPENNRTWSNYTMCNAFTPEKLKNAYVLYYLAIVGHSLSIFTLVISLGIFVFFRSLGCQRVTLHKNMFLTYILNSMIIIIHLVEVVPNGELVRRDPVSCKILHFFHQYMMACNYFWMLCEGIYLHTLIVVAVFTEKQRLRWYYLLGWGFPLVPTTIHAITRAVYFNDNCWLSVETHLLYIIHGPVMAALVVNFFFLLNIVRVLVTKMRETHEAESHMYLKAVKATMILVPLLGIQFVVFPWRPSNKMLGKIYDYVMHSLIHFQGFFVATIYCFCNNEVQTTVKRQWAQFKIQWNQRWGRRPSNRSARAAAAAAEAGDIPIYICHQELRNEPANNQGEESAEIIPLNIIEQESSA

[3] = biological target: CGRP receptor (membranes prepared from SK-N-MC cells) (UniProt Q16602); assay: radioligand displacement, 125I-hCGRP, SK-N-MC cell membranes
CGRP receptor (membranes prepared from SK-N-MC cells), sequence (Q16602 23-461 limits assumed, chain 1 of 2): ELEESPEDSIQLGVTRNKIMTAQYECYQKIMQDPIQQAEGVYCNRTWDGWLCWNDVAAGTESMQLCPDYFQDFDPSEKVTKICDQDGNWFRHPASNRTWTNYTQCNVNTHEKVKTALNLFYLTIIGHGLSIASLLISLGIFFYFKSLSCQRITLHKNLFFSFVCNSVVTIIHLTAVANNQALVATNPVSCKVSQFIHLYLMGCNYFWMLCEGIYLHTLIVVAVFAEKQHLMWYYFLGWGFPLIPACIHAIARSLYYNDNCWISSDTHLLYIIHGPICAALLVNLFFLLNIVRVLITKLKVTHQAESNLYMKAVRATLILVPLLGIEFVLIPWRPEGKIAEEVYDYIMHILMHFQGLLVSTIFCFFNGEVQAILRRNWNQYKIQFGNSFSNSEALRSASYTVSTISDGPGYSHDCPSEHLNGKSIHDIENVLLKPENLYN
CGRP receptor (membranes prepared from SK-N-MC cells), sequence (O60894 27-148 limits assumed, chain 2 of 2, further chain): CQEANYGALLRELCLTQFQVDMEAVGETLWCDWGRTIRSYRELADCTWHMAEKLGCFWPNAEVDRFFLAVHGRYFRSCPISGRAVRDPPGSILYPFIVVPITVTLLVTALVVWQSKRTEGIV

[4] = biological target: calcitonin receptor (receptor binding assay); assay: rCalcitonin RBA, method not described

Amylin RBA (rat), sequence (P32214 other isoform, or with tags, fused parts or gaps, chain 1 of 2): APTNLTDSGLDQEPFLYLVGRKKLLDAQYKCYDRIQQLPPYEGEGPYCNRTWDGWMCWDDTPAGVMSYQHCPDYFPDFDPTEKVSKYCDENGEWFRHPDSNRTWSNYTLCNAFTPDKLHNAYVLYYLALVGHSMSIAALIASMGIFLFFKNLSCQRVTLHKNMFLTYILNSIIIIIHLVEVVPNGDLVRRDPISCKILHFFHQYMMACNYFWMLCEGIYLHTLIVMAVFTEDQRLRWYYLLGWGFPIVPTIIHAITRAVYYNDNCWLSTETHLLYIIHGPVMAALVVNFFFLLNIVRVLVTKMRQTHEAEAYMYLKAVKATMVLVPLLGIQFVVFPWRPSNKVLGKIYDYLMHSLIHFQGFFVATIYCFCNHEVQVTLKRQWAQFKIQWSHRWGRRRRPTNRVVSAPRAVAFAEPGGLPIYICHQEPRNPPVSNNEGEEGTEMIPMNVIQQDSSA
Amylin RBA (rat), sequence (Q9JJ74 27-148, chain 2 of 2, further chain): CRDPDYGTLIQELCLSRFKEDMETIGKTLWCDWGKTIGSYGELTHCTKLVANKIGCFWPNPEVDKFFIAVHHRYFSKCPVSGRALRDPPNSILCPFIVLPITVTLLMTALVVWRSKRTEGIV
CGRP RBA, sequence (Q16602 23-461, chain 1 of 2): as the sequence (Q16602 23-461 limits assumed, chain 1 of 2) above
CGRP RBA, sequence (O60894 27-148, chain 2 of 2, further chain): as the sequence (O60894 27-148 limits assumed, chain 2 of 2, further chain) above

Substance: AFP-6 [1-31]
EC50 (CGRP RBA): 277 nM

Substance: Human CGRP α (peptide)
EC50, cAMP (AlphaScreen), CHO cells, Average [1]: 80.4 nM
EC50, cAMP (AlphaScreen), CHO cells, Experiment 1 [1]: 70.3 nM
EC50, cAMP (AlphaScreen), CHO cells, Experiment 2 [1]: 81.2 nM
EC50, cAMP (AlphaScreen), CHO cells, Experiment 3 [1]: 89.7 nM
EC50, cAMP (AlphaScreen), T47D cells, Average [2]: 35.5 nM
EC50, cAMP (AlphaScreen), T47D cells, Experiment 1 [2]: 11.9 nM
EC50, cAMP (AlphaScreen), T47D cells, Experiment 2 [2]: 66.7 nM
EC50, cAMP (AlphaScreen), T47D cells, Experiment 3 [2]: 27.8 nM

Substance: r/h Amylin (from UniProt P12969 38-74) (peptide)
IC50 [3]: 12 nM

Further lines, results first:

EC50 (Amylin RBA (rat)): > 100 nM
Substance: AFP-6 (1-31)

IC50 [4]: 1.3 to 3.4 nM
Substance: r/h Calcitonin (peptide)
